According to patent publication US20210388087A1 (Chugai, published 2021):

B1: H183/L072 VH I51G (antibody, name in Kabat numbering, V domains shown)
VH: QVQLVESGGGLVQPGRSLRLSCAASGFTFSNAWMHWVRQAPGKGLEWVAQGKDKGNAYAAYYAPSVKGRFTISRDDSKNSIYLQMNSLKTEDTAVYYCHYVHYASASTVLPAFGVDAWGQGTTVTVSS
VL: DIVMTQSPLSLPVTPGEPASISCQASQELVHMNRNTYLHWYQQKPGQAPRLLIYKVSNRFPGVPDRFSGSGSGTDFTLKISRVEAEDVGVYYCAQGTSVPFTFGQGTKLEIK
B2: H183/L072 VH I51K (antibody, name in Kabat numbering, V domains shown)
VH: QVQLVESGGGLVQPGRSLRLSCAASGFTFSNAWMHWVRQAPGKGLEWVAQKKDKGNAYAAYYAPSVKGRFTISRDDSKNSIYLQMNSLKTEDTAVYYCHYVHYASASTVLPAFGVDAWGQGTTVTVSS
VL: DIVMTQSPLSLPVTPGEPASISCQASQELVHMNRNTYLHWYQQKPGQAPRLLIYKVSNRFPGVPDRFSGSGSGTDFTLKISRVEAEDVGVYYCAQGTSVPFTFGQGTKLEIK
B3: H183/L072 VH I51L (antibody, name in Kabat numbering, V domains shown)
VH: QVQLVESGGGLVQPGRSLRLSCAASGFTFSNAWMHWVRQAPGKGLEWVAQLKDKGNAYAAYYAPSVKGRFTISRDDSKNSIYLQMNSLKTEDTAVYYCHYVHYASASTVLPAFGVDAWGQGTTVTVSS
VL: DIVMTQSPLSLPVTPGEPASISCQASQELVHMNRNTYLHWYQQKPGQAPRLLIYKVSNRFPGVPDRFSGSGSGTDFTLKISRVEAEDVGVYYCAQGTSVPFTFGQGTKLEIK
B4: H183/L072 VH I51M (antibody, name in Kabat numbering, V domains shown)
VH: QVQLVESGGGLVQPGRSLRLSCAASGFTFSNAWMHWVRQAPGKGLEWVAQMKDKGNAYAAYYAPSVKGRFTISRDDSKNSIYLQMNSLKTEDTAVYYCHYVHYASASTVLPAFGVDAWGQGTTVTVSS
VL: DIVMTQSPLSLPVTPGEPASISCQASQELVHMNRNTYLHWYQQKPGQAPRLLIYKVSNRFPGVPDRFSGSGSGTDFTLKISRVEAEDVGVYYCAQGTSVPFTFGQGTKLEIK
B5: H183/L072 VH I51N (antibody, name in Kabat numbering, V domains shown)
VH: QVQLVESGGGLVQPGRSLRLSCAASGFTFSNAWMHWVRQAPGKGLEWVAQNKDKGNAYAAYYAPSVKGRFTISRDDSKNSIYLQMNSLKTEDTAVYYCHYVHYASASTVLPAFGVDAWGQGTTVTVSS
VL: DIVMTQSPLSLPVTPGEPASISCQASQELVHMNRNTYLHWYQQKPGQAPRLLIYKVSNRFPGVPDRFSGSGSGTDFTLKISRVEAEDVGVYYCAQGTSVPFTFGQGTKLEIK
B6: H183/L072 VH I51S (antibody, name in Kabat numbering, V domains shown)
VH: QVQLVESGGGLVQPGRSLRLSCAASGFTFSNAWMHWVRQAPGKGLEWVAQSKDKGNAYAAYYAPSVKGRFTISRDDSKNSIYLQMNSLKTEDTAVYYCHYVHYASASTVLPAFGVDAWGQGTTVTVSS
VL: DIVMTQSPLSLPVTPGEPASISCQASQELVHMNRNTYLHWYQQKPGQAPRLLIYKVSNRFPGVPDRFSGSGSGTDFTLKISRVEAEDVGVYYCAQGTSVPFTFGQGTKLEIK
B7: H183/L072 VH I51T (antibody, name in Kabat numbering, V domains shown)
VH: QVQLVESGGGLVQPGRSLRLSCAASGFTFSNAWMHWVRQAPGKGLEWVAQTKDKGNAYAAYYAPSVKGRFTISRDDSKNSIYLQMNSLKTEDTAVYYCHYVHYASASTVLPAFGVDAWGQGTTVTVSS
VL: DIVMTQSPLSLPVTPGEPASISCQASQELVHMNRNTYLHWYQQKPGQAPRLLIYKVSNRFPGVPDRFSGSGSGTDFTLKISRVEAEDVGVYYCAQGTSVPFTFGQGTKLEIK
B8: H183/L072 VH I51V (antibody, name in Kabat numbering, V domains shown)
VH: QVQLVESGGGLVQPGRSLRLSCAASGFTFSNAWMHWVRQAPGKGLEWVAQVKDKGNAYAAYYAPSVKGRFTISRDDSKNSIYLQMNSLKTEDTAVYYCHYVHYASASTVLPAFGVDAWGQGTTVTVSS
VL: DIVMTQSPLSLPVTPGEPASISCQASQELVHMNRNTYLHWYQQKPGQAPRLLIYKVSNRFPGVPDRFSGSGSGTDFTLKISRVEAEDVGVYYCAQGTSVPFTFGQGTKLEIK
B9: H183/L072 VH I51Y (antibody, name in Kabat numbering, V domains shown)
VH: QVQLVESGGGLVQPGRSLRLSCAASGFTFSNAWMHWVRQAPGKGLEWVAQYKDKGNAYAAYYAPSVKGRFTISRDDSKNSIYLQMNSLKTEDTAVYYCHYVHYASASTVLPAFGVDAWGQGTTVTVSS
VL: DIVMTQSPLSLPVTPGEPASISCQASQELVHMNRNTYLHWYQQKPGQAPRLLIYKVSNRFPGVPDRFSGSGSGTDFTLKISRVEAEDVGVYYCAQGTSVPFTFGQGTKLEIK
B10: H183/L072 VH K52L (antibody, name in Kabat numbering, V domains shown)
VH: QVQLVESGGGLVQPGRSLRLSCAASGFTFSNAWMHWVRQAPGKGLEWVAQILDKGNAYAAYYAPSVKGRFTISRDDSKNSIYLQMNSLKTEDTAVYYCHYVHYASASTVLPAFGVDAWGQGTTVTVSS
VL: DIVMTQSPLSLPVTPGEPASISCQASQELVHMNRNTYLHWYQQKPGQAPRLLIYKVSNRFPGVPDRFSGSGSGTDFTLKISRVEAEDVGVYYCAQGTSVPFTFGQGTKLEIK
B11: H183/L072 VH K52M (antibody, name in Kabat numbering, V domains shown)
VH: QVQLVESGGGLVQPGRSLRLSCAASGFTFSNAWMHWVRQAPGKGLEWVAQIMDKGNAYAAYYAPSVKGRFTISRDDSKNSIYLQMNSLKTEDTAVYYCHYVHYASASTVLPAFGVDAWGQGTTVTVSS
VL: DIVMTQSPLSLPVTPGEPASISCQASQELVHMNRNTYLHWYQQKPGQAPRLLIYKVSNRFPGVPDRFSGSGSGTDFTLKISRVEAEDVGVYYCAQGTSVPFTFGQGTKLEIK
B12: H183/L072 VH K52N (antibody, name in Kabat numbering, V domains shown)
VH: QVQLVESGGGLVQPGRSLRLSCAASGFTFSNAWMHWVRQAPGKGLEWVAQINDKGNAYAAYYAPSVKGRFTISRDDSKNSIYLQMNSLKTEDTAVYYCHYVHYASASTVLPAFGVDAWGQGTTVTVSS
VL: DIVMTQSPLSLPVTPGEPASISCQASQELVHMNRNTYLHWYQQKPGQAPRLLIYKVSNRFPGVPDRFSGSGSGTDFTLKISRVEAEDVGVYYCAQGTSVPFTFGQGTKLEIK
B13: H183/L072 VH K52Q (antibody, name in Kabat numbering, V domains shown)
VH: QVQLVESGGGLVQPGRSLRLSCAASGFTFSNAWMHWVRQAPGKGLEWVAQIQDKGNAYAAYYAPSVKGRFTISRDDSKNSIYLQMNSLKTEDTAVYYCHYVHYASASTVLPAFGVDAWGQGTTVTVSS
VL: DIVMTQSPLSLPVTPGEPASISCQASQELVHMNRNTYLHWYQQKPGQAPRLLIYKVSNRFPGVPDRFSGSGSGTDFTLKISRVEAEDVGVYYCAQGTSVPFTFGQGTKLEIK
B14: H183/L072 VH K52R (antibody, name in Kabat numbering, V domains shown)
VH: QVQLVESGGGLVQPGRSLRLSCAASGFTFSNAWMHWVRQAPGKGLEWVAQIRDKGNAYAAYYAPSVKGRFTISRDDSKNSIYLQMNSLKTEDTAVYYCHYVHYASASTVLPAFGVDAWGQGTTVTVSS
VL: DIVMTQSPLSLPVTPGEPASISCQASQELVHMNRNTYLHWYQQKPGQAPRLLIYKVSNRFPGVPDRFSGSGSGTDFTLKISRVEAEDVGVYYCAQGTSVPFTFGQGTKLEIK
B15: H183/L072 VH K52Y (antibody, name in Kabat numbering, V domains shown)
VH: QVQLVESGGGLVQPGRSLRLSCAASGFTFSNAWMHWVRQAPGKGLEWVAQIYDKGNAYAAYYAPSVKGRFTISRDDSKNSIYLQMNSLKTEDTAVYYCHYVHYASASTVLPAFGVDAWGQGTTVTVSS
VL: DIVMTQSPLSLPVTPGEPASISCQASQELVHMNRNTYLHWYQQKPGQAPRLLIYKVSNRFPGVPDRFSGSGSGTDFTLKISRVEAEDVGVYYCAQGTSVPFTFGQGTKLEIK
B16: H183/L072 VH K52bA (antibody, name in Kabat numbering, V domains shown)
VH: QVQLVESGGGLVQPGRSLRLSCAASGFTFSNAWMHWVRQAPGKGLEWVAQIKDAGNAYAAYYAPSVKGRFTISRDDSKNSIYLQMNSLKTEDTAVYYCHYVHYASASTVLPAFGVDAWGQGTTVTVSS
VL: DIVMTQSPLSLPVTPGEPASISCQASQELVHMNRNTYLHWYQQKPGQAPRLLIYKVSNRFPGVPDRFSGSGSGTDFTLKISRVEAEDVGVYYCAQGTSVPFTFGQGTKLEIK
B17: H183/L072 VH K52bE (antibody, name in Kabat numbering, V domains shown)
VH: QVQLVESGGGLVQPGRSLRLSCAASGFTFSNAWMHWVRQAPGKGLEWVAQIKDEGNAYAAYYAPSVKGRFTISRDDSKNSIYLQMNSLKTEDTAVYYCHYVHYASASTVLPAFGVDAWGQGTTVTVSS
VL: DIVMTQSPLSLPVTPGEPASISCQASQELVHMNRNTYLHWYQQKPGQAPRLLIYKVSNRFPGVPDRFSGSGSGTDFTLKISRVEAEDVGVYYCAQGTSVPFTFGQGTKLEIK
B18: H183/L072 VH K52bF (antibody, name in Kabat numbering, V domains shown)
VH: QVQLVESGGGLVQPGRSLRLSCAASGFTFSNAWMHWVRQAPGKGLEWVAQIKDFGNAYAAYYAPSVKGRFTISRDDSKNSIYLQMNSLKTEDTAVYYCHYVHYASASTVLPAFGVDAWGQGTTVTVSS
VL: DIVMTQSPLSLPVTPGEPASISCQASQELVHMNRNTYLHWYQQKPGQAPRLLIYKVSNRFPGVPDRFSGSGSGTDFTLKISRVEAEDVGVYYCAQGTSVPFTFGQGTKLEIK
B19: H183/L072 VH K52bG (antibody, name in Kabat numbering, V domains shown)
VH: QVQLVESGGGLVQPGRSLRLSCAASGFTFSNAWMHWVRQAPGKGLEWVAQIKDGGNAYAAYYAPSVKGRFTISRDDSKNSIYLQMNSLKTEDTAVYYCHYVHYASASTVLPAFGVDAWGQGTTVTVSS
VL: DIVMTQSPLSLPVTPGEPASISCQASQELVHMNRNTYLHWYQQKPGQAPRLLIYKVSNRFPGVPDRFSGSGSGTDFTLKISRVEAEDVGVYYCAQGTSVPFTFGQGTKLEIK
B20: H183/L072 VH K52bH (antibody, name in Kabat numbering, V domains shown)
VH: QVQLVESGGGLVQPGRSLRLSCAASGFTFSNAWMHWVRQAPGKGLEWVAQIKDHGNAYAAYYAPSVKGRFTISRDDSKNSIYLQMNSLKTEDTAVYYCHYVHYASASTVLPAFGVDAWGQGTTVTVSS
VL: DIVMTQSPLSLPVTPGEPASISCQASQELVHMNRNTYLHWYQQKPGQAPRLLIYKVSNRFPGVPDRFSGSGSGTDFTLKISRVEAEDVGVYYCAQGTSVPFTFGQGTKLEIK
B21: H183/L072 VH K52bI (antibody, name in Kabat numbering, V domains shown)
VH: QVQLVESGGGLVQPGRSLRLSCAASGFTFSNAWMHWVRQAPGKGLEWVAQIKDIGNAYAAYYAPSVKGRFTISRDDSKNSIYLQMNSLKTEDTAVYYCHYVHYASASTVLPAFGVDAWGQGTTVTVSS
VL: DIVMTQSPLSLPVTPGEPASISCQASQELVHMNRNTYLHWYQQKPGQAPRLLIYKVSNRFPGVPDRFSGSGSGTDFTLKISRVEAEDVGVYYCAQGTSVPFTFGQGTKLEIK

These binders were tested against T1, Human CD137 ECD (human) (assay: single mutant vs template dBBDu183H).
T1 construct: also called 4-1BB
T1 sequence (chain, as listed by the source limits assumed): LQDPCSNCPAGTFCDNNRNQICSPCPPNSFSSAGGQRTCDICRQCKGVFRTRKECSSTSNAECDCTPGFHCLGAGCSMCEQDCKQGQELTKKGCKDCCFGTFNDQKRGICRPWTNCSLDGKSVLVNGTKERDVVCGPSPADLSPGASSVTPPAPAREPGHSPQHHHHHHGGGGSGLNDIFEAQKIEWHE

Binder | fold change of affinity
B1 | 0.1 fold
B2 | 0.1 fold
B3 | 0.1 fold
B4 | 0.2 fold
B5 | 0.2 fold
B6 | 0.4 fold
B7 | 0.3 fold
B8 | 1 fold
B9 | 0 fold
B10 | 0.1 fold
B11 | 0.3 fold
B12 | 0.2 fold
B13 | 0.3 fold
B14 | 0.2 fold
B15 | 0 fold
B16 | 1 fold
B17 | 0.5 fold
B18 | 0.7 fold
B19 | 0.9 fold
B20 | 0.7 fold
B21 | 0.8 fold
